Experimental data taken from patent US8207309B2, “Human synthetic single-chain antibodies directed against the common epitope of mutant P53 and their uses” (Ramot at Tel-Aviv University Ltd., priority 2005, dated 2012).
“Also recorded” adds a separate entry of the source. Like-named read-outs stand apart in the source and are kept apart here.

B1: A6 scFv: human scFv, SEQ ID NO:115; VL CDRs SEQ ID NOs:60-62 (protein)
scFv: VQLLESGGGLVQPGGSPRLSCAASGFTFSGYWMHWVRQAPGKGLEWVSEISGSGDSTHYGDSVKGRFTISRDNSKNTLYLQMNSLRAEDTAVYYCARGRNGSLDYWGQGTLVTVSSGSAGGGGSGGGGSGGGGSDIVLTQPPSASGTPGQRVTISCTGGRFNIGDYAVNWYQQLPGKAPKLLIYDNDRRPSGVSDRFSGSKSGTSASLAISGLRSEDEADYYCAAWDDSLDGLVFGGGTQLTV
modifications: Single chain Fv
B2: A4 scFv: human scFv clone; VL CDRs SEQ ID NOs:36-38 (protein)
scFv: VQLLESGGGLVQPGGSLRLSCAASGFTFSGYWMHWVRQAPGKGLEWVSEISGSGDSTHYGDSVKGRFTISRDNSKNTLYLQMNSLRAEDTAVYYCARGRNGSLDYWGQGTLVTVSSGSAGGGGSGGGGSGGGGSDIVLTQPPSASGTPGQRVTISCTGNSSNIGAGYDVHWYQQLPGKAPKLLIYSNNQRPSGVPDRFSGSKSGTSASLAISGLRSEDEADYYCAAWDDSLSSVVFGGGTKLTV
B3: B6 scFv: human scFv clone; VL CDRs SEQ ID NOs:27-29 (protein)
scFv: VQLLESGGGLVQPGGSLRLSCAASGFTFSGYWMHWVRQAPGKGLEWVSEISGSGDSTHYGDSVKGRFTISRDNSKNTLYLQMNSLRAEDTAVYYCARGRNGSLDYWGQGTLVTVSSGSAGGGGSGGGGSGGGGSDIVLTQPPSASGTPGQRVTISCTGSSANIGAGYDVHWYQQLPGKAPKLLIYDNDKRPSGVPDRFSGSKSGTSASLAISGLRSEDEADYYCAAWDDRLSGVVFGGGTKVTV

How the values were obtained:
[1] = target: T1, common epitope of mutant p53 (FRHSVV; SEQ ID NO:1) (Homo sapiens, UniProt P04637); experiment: BIAcore analysis of scFv binding to immobilized FRHSVV-biotin peptide; conditions: FRHSVV-biotin on streptavidin chip, 1:1 Langmuir model, read-out: affinity (binding constant) towards the common epitope (SEQ ID NO:1)
T1 construct: A biotin conjugate of the peptide (FRHSVV)
Procedure: Binding was determined using the BIACore at the indicated concentrations of antibodies. RU=resonance units. The binding constant was determined using the software that is supplied with the BIAcore instrument (wwwdotBiacoredotcom).
BIAcore Analysis—Real time analysis of the interaction between scFvs and FHRSVV-biotin were determined using BIAcore technology (Biacore AB, Uppsala, Sweden) according to manufacturer's instructions. The peptide FRHSVV-biotin was immobilized on a streptavidin coated sensor chip surface SA. The amount of immobilized peptide was 200 pg/mm^2, the binding was in HBS buffer (10 mM Hepes PH 7.4, 150 mM NaCl, 0.005% Tween-20, 3.4 mM EDTA). Several concentrations of purified scFv (62 nM, 125 nM, 250 nM, 1 μM and 2 μM) were injected at a flow rate of 20 μl/minute. […] Regeneration of the sensor chip was performed using 10 μl of 10 mM HCl. The kinetics parameters of the binding reactions were determined by BIAevaluation 4.0 Software (Biacore AB) using the 1:1 Langmuir model. The dissociation rate (off-rate) constant Kd and the association rate constant (on-rate) Ka were determined simultaneously according to manufacturer's instructions.
The scFv F2 and E6 antibodies display high affinity binding of the mutant epitope—To determine the affinity binding of the isolated scFvs towards the target peptide (SEQ ID NO:1), the BIAcore technology was employed. […]

[2] = test system: BSA, Streptavidin, amyloid peptide (SEQ ID NO:2), MAP-PrP, PaP; conditions: ELISA, FIG. 9, SEQ ID NOs:2-4
[3] = target: T2, FRHSVV peptide (SEQ ID NO:1; common epitope of mutant p53) (Homo sapiens, UniProt P04637); experiment: Binding specificity ELISA of scFvs (FIG. 9)
T2 construct: A biotin conjugate of the peptide (FRHSVV)

Molecule	Kd [1]	binding to the other peptides or proteins tested [2]	binding to peptide of the common epitope of mutant p53 (SEQ ID NO:1) [3]	binding to peptide of the common epitope of mutant p53 (SEQ ID NO:1) ([3]; listed as A4)
B1	0.023 µM	–	–	–
B2	–	low affinity	high affinity	highly specific; also recorded: high binding specificity
B3	–	low affinity	–	–
